Assay [1] addresses TaABI1 (wheat).
The next assay addresses AtABI1 (A. thaliana) (UniProt P49597).
The target in assay [2] is TaABI1 (wheat). The source holds these as a separate data set.
Assay [3] has as its target T1, Bradi1g37810 (with Bradi2g41950) (Brachypodium distachyon, UniProt I1GXY5).
T1 construct: gene LOC100840898; recombinant from E. coli, Ni-NTA enriched; receptor 196 residues; with Protein phosphatase 2C
T1 sequence (I1GXY5 1-196): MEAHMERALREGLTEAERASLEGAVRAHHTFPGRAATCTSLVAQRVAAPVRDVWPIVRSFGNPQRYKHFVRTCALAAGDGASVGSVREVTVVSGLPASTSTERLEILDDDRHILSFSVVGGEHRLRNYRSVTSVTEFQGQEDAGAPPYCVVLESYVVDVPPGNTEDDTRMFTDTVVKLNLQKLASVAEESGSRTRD
Put plainly: receptor-mediated PP2C inhibition, 4-methylumbelliferyl phosphate fluorescence. In kind it is biochemical. The settings on record: ligand 0.1 uM unless otherwise noted, Mn2+, pH 7.9, 30 °C, n = 1 screen.

In the next assay the target is T2, AtPYL6 (with TaABI1) (Arabidopsis thaliana, UniProt Q8S8E3).
T2 construct: gene PYL6; recombinant from E. coli, Ni-NTA enriched; the partner PP2C is from wheat; with Protein phosphatase 2C ABI1 (Triticum aestivum)
T2 sequence (Q8S8E3 1-215): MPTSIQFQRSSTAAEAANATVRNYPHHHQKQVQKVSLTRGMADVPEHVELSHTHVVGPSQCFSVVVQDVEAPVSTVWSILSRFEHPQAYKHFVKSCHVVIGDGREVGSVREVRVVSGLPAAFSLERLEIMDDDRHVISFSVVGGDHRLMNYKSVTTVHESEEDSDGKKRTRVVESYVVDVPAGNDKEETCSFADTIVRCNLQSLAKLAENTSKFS
T2 sequence (A5A6P8 1-479 partner): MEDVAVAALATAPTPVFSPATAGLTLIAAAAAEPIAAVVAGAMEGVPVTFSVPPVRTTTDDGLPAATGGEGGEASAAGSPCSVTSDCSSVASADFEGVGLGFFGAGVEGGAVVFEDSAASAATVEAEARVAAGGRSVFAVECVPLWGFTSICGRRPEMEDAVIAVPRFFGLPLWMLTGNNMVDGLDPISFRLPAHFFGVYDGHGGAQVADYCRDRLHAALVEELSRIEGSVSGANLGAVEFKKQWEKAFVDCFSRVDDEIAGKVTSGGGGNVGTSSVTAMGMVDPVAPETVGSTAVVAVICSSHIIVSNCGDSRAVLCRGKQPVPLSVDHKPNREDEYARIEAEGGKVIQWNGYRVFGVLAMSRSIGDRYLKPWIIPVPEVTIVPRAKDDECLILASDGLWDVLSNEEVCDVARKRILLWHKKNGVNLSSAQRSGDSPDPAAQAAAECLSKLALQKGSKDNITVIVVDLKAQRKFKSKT
The assay is described as above. In kind it is biochemical. The settings on record: ligand 0.1 uM unless otherwise noted, Mn2+, pH 7.9, 30 °C.

For assay [4], the target named is Bradi2g41950 (B. distachyon).

Sequence of AtABI1 (A. thaliana) (P49597 whole entry): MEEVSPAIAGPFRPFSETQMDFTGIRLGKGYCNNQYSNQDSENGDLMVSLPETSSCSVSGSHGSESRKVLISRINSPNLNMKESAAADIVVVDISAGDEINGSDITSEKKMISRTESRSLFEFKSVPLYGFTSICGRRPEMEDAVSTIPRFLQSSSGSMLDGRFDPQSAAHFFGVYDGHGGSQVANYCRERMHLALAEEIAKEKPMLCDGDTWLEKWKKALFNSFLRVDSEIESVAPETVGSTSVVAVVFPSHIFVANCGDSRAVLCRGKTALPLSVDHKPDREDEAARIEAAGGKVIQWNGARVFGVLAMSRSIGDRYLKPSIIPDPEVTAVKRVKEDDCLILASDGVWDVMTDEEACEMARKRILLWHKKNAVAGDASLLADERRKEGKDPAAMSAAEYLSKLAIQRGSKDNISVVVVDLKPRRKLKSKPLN

In the assay with TaABI1 (wheat) [1], Ta_PYL2DS_FL (receptor) yielded a PP2C phosphatase activity, receptor to PP2C 10:1, with 0.1 uM PBI352 (Fig 2B) (% decrease in PP2C activity) of 30 and a PP2C phosphatase activity, receptor to PP2C 10:1, with 0.1 uM PBI354 (Fig 2C) (% decrease in PP2C activity) of 0. In the assay with AtABI1 (A. thaliana), this molecule had a PP2C phosphatase activity, receptor to PP2C 10:1, with 0.1 uM PBI352 (Fig 2B) (% decrease in PP2C activity) of 30 and a PP2C phosphatase activity, receptor to PP2C 10:1, with 0.1 uM PBI354 (Fig 2C) (% decrease in PP2C activity) of 0. Further, the TaABI1 phosphatase activity (4-methylumbelliferyl phosphate) with the receptor, on addition of ABA (Figure B in S2 File) (% reduction of phosphatase activity) with TaABI1 (wheat) [2] stood at 90.

Turning to `CO[C@]1(/C=C/C(C)=C\C(=O)O)C(C)=CC(=O)CC1(C)C` [PBI352], the “% inhibition of PP2C” value in assay [3] is recorded as “subfamily III receptor Bd1g37810 is similar to that of the subfamily II, Ta_PYL2DS_FL”; at AtPYL6 (with TaABI1), “the three A. thaliana receptors against the Ta_ABI1 PP2C were plotted”.

For the molecule Bradi2g32250 (receptor), the Bradi2g41950 phosphatase activity with receptor and PBI352 (Figure C in S2 File; n = 1) (% inhibition of PP2C) in assay [4] came out at 90.

Take Bradi3g09580 (receptor): the Bradi2g41950 phosphatase activity with receptor and PBI352 (Figure C in S2 File; n = 1) (% inhibition of PP2C) in assay [4] is 90.

For the origin of these results see article PMC5068739 (PLoS ONE, 2016).
